Test results: patent publication US20100227772
Where two headings read alike, the source gives them in different places.

System: Antennapedia homeodomain (YPWM motif + homeodomain, Antp residues 297-364 in plasmid pAop3)
Conditions: FCCS

| Substance | Kd (average of 3 saturation curves, single curve of FIG. 3 gives 8.6 nM) [nM] | Kd (average of 10 saturation curves, single curve of FIG. 2 gives 6.3 nM) [nM] |
| --- | --- | --- |
| BS2 (16 bp) | 5.1 | – |
| HB1 (36 bp) | – | 3.6 |
